The source of these data is article PMC10855554.

For one assay, the target named is TbTim10-Myc (T. brucei). As to the kind of experiment: co-IP; anti-Myc agarose beads, 1% digitonin-solubilised mitochondrial extract of double-tagged T. brucei cells (day 2 of induction), 50 mM Tris pH 7.2, 50 mM NaCl, 10% glycerol, 12 h at 4 °C; immunoblot, bound fraction as percent of input.
A further assay concerns the target TbTim10-HA (T. brucei). The assay is described as follows: co-IP; anti-HA agarose beads, 1% digitonin-solubilised mitochondrial extract of double-tagged T. brucei cells (day 2 of induction), 50 mM Tris pH 7.2, 50 mM NaCl, 10% glycerol, 12 h at 4 °C; immunoblot, bound fraction as percent of input. Background: A western blot detects proteins with antibodies after separation by electrophoresis.

The target of a further assay is TbTim12-HA (T. brucei). The description is as above.
The next assay concerns the target TbTim13-HA (T. brucei). The assay is described as above.
The target in a further assay is TbTim8/13-HA (T. brucei). The description is as above.
The next assay concerns the target TbTim9-HA (T. brucei). The assay is described as above.

In the case of TbTim8/13-HA (natural protein), the percent of input co-precipitated (% of the input) with TbTim10-Myc (T. brucei) amounted to 45. In the case of TbTim9-HA (natural protein), the percent of input co-precipitated (% of the input) with TbTim10-Myc (T. brucei) was found to be 35. Same read-out and setting: then TbTim10-HA (natural protein), with 25. TbTim10-Myc (natural protein): the percent of input co-precipitated with TbTim10-HA (T. brucei), in the assay with TbTim12-HA (T. brucei) and in the assay with TbTim13-HA (T. brucei) was below 10% each time. Further, the percent of input co-precipitated (% of the input) in the assay with TbTim8/13-HA (T. brucei) and in the assay with TbTim9-HA (T. brucei) was 45 in each case. The substance TbTim12-HA (natural protein) came in with a percent of input co-precipitated (% of the input) with TbTim10-Myc (T. brucei) of 30.
